Patent publication US11091749B2, “Deimmunized lysostaphin and methods of use” (TRUSTEES OF DARTMOUTH COLLEGE, priority 2014, dated 2021)
Where a chain is given by its changes, count along the chain named. Names and notes keep the numbering of the source.

B1: Flex 5: lysostaphin variant K46H, I99Q, N121G, S122D (protein, UniProt P10547 248-493, looked up, variant K46H I99Q N121G S122D)
Lysostaphin: AATHEHSAQWLNNYKKGYGYGPYPLGINGGMHYGVDFFMNIGTPVHAISSGKIVEAGWSNYGGGNQIGLIENDGVHRQWYMHLSKYNVKVGDYVKAGQQIGWSGSTGYSTAPHLHFQRMVGDFSNSTAQDPMPFLKSAGYGKAGGTVTPTPNTGWKTNKYGTLYKSESASFTPNTDIITRTTGPFRSMPQSGVLKAGQTIHYDEVMKQDGHVWVGYTGNSGQRIYLPVRTWNKSTNTLGVLWGTIK
B2: F11: variant combining cell wall binding domain mutations with Flex 9 (or derivative) catalytic domain (Table 22) (protein)
chain: AATHEHSAQWLGNYKKGYGYGPYPLGINGGMHYGVDFFMNEGTPVKAISSGKIVEAGWSNYGGGNQIGLIENDGVHRQWYMHMSKYNVKVGDYVEAGQQIGWSGSTGYSTAPHLHFQRMVGDFGNPTAQDPMPFLKSAGYGKAGGTVTPTPNTGWKTNKHGTLYKSESGSFTPNTDIITRTTGPFTSMPQSGVLKAGQTIHYDEVMKQDGHVWVGYTGNSGQRIYLPVRTWQKSTNTLGVLWGTIK
B3: F13: variant combining cell wall binding domain mutations with Flex 9 (or derivative) catalytic domain (Table 22) (protein)
chain: B2 chain with S166N, N236D

Key:
MRSA strain 3425-3 = assay: MIC assay; format: cell-based, Staphylococcus aureus; conditions: biological duplicates
Experimental: (§1) The MICs of wild-type lysostaphin and its variants were determined by adding 2-fold serial dilutions of enzymes into wells of a polypropylene 96-well plate (Costar 3879) containing ˜40,000 S. aureus SA113 (or S. aureus 6445, 3425-1, 3425-3) cells in Muller Hinton broth (BD) supplemented with 2% NaCl and 0.1% bovine serum albumin, yielding a total volume of 100 μl. Plates were grown overnight at 37° C. with shaking at 900 rpm on an Orbit P4 orbital shaker (Labnet; Edison, N.J.). […] The assay was performed in triplicate for each enzyme.

S. aureus 3425-1 = assay: MIC assay; format: cell-based, Staphylococcus aureus; conditions: biological duplicates
Experimental: as §1

S. aureus SA113 = assay: MIC assay; format: cell-based, Staphylococcus aureus
Experimental: as §1

[1] = Thermostability by differential scanning fluorimetry; format: physicochemical
Experimental: The relative thermostability of the lysostaphin variants was determined by differential scanning fluorimetry, as previously described (Niesen, et al. (2007) Nat. Protocols 2:2212-2221). Proteins and SYPRO Orange were diluted in PBS (final concentrations of 100 μg/ml and 5× in 20 μl reaction volume, respectively), and fluorescence was quantified at 1-degree increments from 25 to 94° C. using an Applied Biosystems ABI 7500 fast real-time PCR system. The reactions were performed using PCR Plates for Fast Thermocyclers (VWR; Radnor, Pa.). Fluorescence was quantified using the preset TAMRA parameters. Melting temperatures were determined by data analysis with the ‘DSF Analysis v3.0.xlsx’ EXCEL sheet and GraphPad Prism v.6.02 software.

S. aureus 6445 = assay: MIC assay; format: cell-based, Staphylococcus aureus; conditions: biological duplicates
S. aureus cells = assay: Lytic assay using purified protein (SYTOX kinetic assay); format: cell-based, Staphylococcus aureus
Experimental: S. aureus cells were grown either to mid-log or to saturation in tryptic soy broth (TSB) at 37° C. with shaking. The cells were harvested by centrifugation and washed once in phosphate buffered saline (PBS: 2.7 mM KCl, 1.5 mM KH2PO4, 8.9 mM Na2HPO4, 136.9 mM NaCl, pH 7.4). The assay was performed in 96-well, black, clear bottom plates from Greiner Bio-One (Monroe, N.C.). The final (250 μl) reaction was composed of 10 μl of P. pastoris culture supernatant, S. aureus cells at OD600=1.5, and 5 μM SYTOX Green (Thermo Fisher Scientific; Waltham, Mass.), all in PBS. Data were collected using SPECTRAMAX GEMINI Fluorescence Microplate Reader (Molecular Devices; Sunnyvale, Calif.) using an excitation/emission of 504/523 nm, and rates were determined from the slope of the steepest linear portion of the trace. Each assay was performed with 500 ng of commercially-sourced lysostaphin (ssLys) as an internal control.
The activity of purified lysostaphin variants was examined using the SYTOX kinetic assay as previously described in Chapter 2, Section 3.2.6. 200 ng of purified enzyme (instead of culture supernatant) was used in each reaction.

pooled splenocytes [2] = conditions: mouse, in vivo
Text: HUMI mice were constructed by surgical transplantation of human bone marrow, liver, and thymus tissues into NOD/SCID/γc^−/− mice (Dartmouth Transgenics & Genetic Constructs Shared Resource) as described (Brainard, et al. (2009) J. Virol. 83:7305-21). All animals were humanized from the same human donor. Mice used experimentally had human lymphocytes as a minimum of 25% of their total peripheral blood leukocytes. Fourteen weeks post-engraftment, 12 female HUMI mice were divided into 3 groups of 4 each and immunized with a single 50 μl subcutaneous injection of 100 μg wild-type LST, 100 μg variant Flex 5, or 100 μg variant Flex 9 in complete Freund's adjuvant (CFA). Two weeks following the immunization, mice were sacrificed and splenocytes were harvested and pooled for each group. Pooled splenocytes (5×10^5/well) were plated in triplicate into 96-well plates with medium containing 5% fetal calf serum, 1-glutamine, antibiotics, and a final concentration of 10 μg/ml LST or variants (or 1% DMSO as a control). […]
In vivo immunogenicity was evaluated using NOD/SCID/γc^−/− mice that had been surgically humanized with human immune cells, liver tissue, and thymus tissue (HUMI mice). […] Cell proliferation was measured by tritiated thymidine uptake at 72 hours.

pooled splenocytes [3] = assay: Transgenic DR4 murine immunogenicity study (memory response, splenocyte proliferation); format: in vivo; conditions: wild-type LST primed mice, 100 μg rechallenge
Experimental: Twelve female 6-8 week old DR4 transgenic mice (Abb Knockout/Transgenic HLA-DR4; B6.129S2-H2-Ab1tm1GruTg(HLA-DRA/H2-Ea,HLA-DRB1*0401/H2-Eb)1Kito; Taconic Farms, Germantown, N.Y.) were divided into four groups of three each and immunized with 50 μl subcutaneous injections of wild-type LST using one of the following four schemes: (i) initial immunization with 100 μg enzyme in CFA, followed by 100 μg boosts in incomplete Freund's adjuvant (IFA) on days 14 and 28; (ii) initial immunization with 20 μg enzyme in CFA, followed by 20 μg boosts in IFA on days 14 and 28; (iii) initial immunization with 100 μg enzyme in PBS buffer, followed by 100 μg boosts in PBS buffer on days 7, 14, 21 and 28; (iv) initial immunization with 20 μg enzyme in PBS buffer, followed by 20 μg boosts in PBS buffer on days 7, 14, 21 and 28. Serum IgG antibody titers against wild-type LST were measured on days 13, 20, 27, 34, and 62. […] Mice were housed without further manipulation until week 23 of the study, at which time serum IgG antibody titers were again measured and mice were divided into two experimental arms having equivalent average antibody titers. Note that during the week 9 to week 23 recovery period, two mice (the lowest titer 100 μg no adjuvant and one of the high titer 100 μg adjuvant) began suffering hair loss, weight loss, and reduced mobility and were sacrificed as per the IACUC approved protocol. […]

MRSA strain USA400 [4] = assay: In vitro inhibitory activity (MIC); format: cell-based, Staphylococcus aureus
Text: F11, P12 and F13 were screened for in vitro inhibitory activity against MRSA strain USA400 (FIG. 7).

MRSA strain USA400 [5] = assay: In vivo efficacy of F11, intraperitoneal MRSA challenge; design: species or system C57BL/6 mice; conditions: 100 μg single bolus i.v. 1 h after 2×10^8 MRSA i.p.
Experimental: Mice were challenged with an intraperitoneal injection of 2×10^8 MRSA strain USA400, and 1 hour later the mice were treated with 100 μg wild-type LST, F11 or PBS. The percent survival is shown.
The in vivo efficacy of the F11 variant was further analyzed in C57BL/6 mice. Mice were challenged with an intraperitoneal injection of 2×10^8 MRSA strain USA400, and 1 hour later the mice were treated with 100 μg wild-type LST, F11 or PBS, administered as a single bolus intravenous injection. The survival rate for both protein treatments was 1/3. The 100 μg dosage was selected because wild-type LST is known to be only partially efficacious at this dose.

[6] = Immunogenicity of F13, antibody titers by ELISA (CFA); format: in vivo, DR4 HLA transgenic mice; conditions: 100 μg s.c. in CFA, fourteen days
Experimental: (§2) The immunogenicity of the F13 variant was compared to wild-type LST in DR4 HLA transgenic mice, i.e., mice bearing partially humanized immune systems. 100 μg of wild-type LST or variant F13 were mixed with complete Freund's adjuvant and injected subcutaneously into DR4 mice. Fourteen days later, antibody titers were measured by ELISA. Variant F13 yielded more than 200-fold lower antibody titers compared to wild-type LST. To assess the impact of antibody titers on antibacterial efficacy, the mice were challenged with an intraperitoneal injection of 2×10^8 MRSA strain USA400, and 1 hour later the mice were treated with 500 μg wild-type LST, variant F13, or PBS, administered as a single bolus intravenous injection. Both mice receiving PBS sham treatments died as did both mice treated with wild-type LST. In contrast, both mice treated with variant F13 survived. Thus, the reduced immunogenicity of F13 conferred enhanced therapeutic efficacy in vivo.

MRSA strain USA400 [7] = assay: Efficacy of F13 in immunized mice, MRSA challenge; format: in vivo, DR4 HLA transgenic mice; conditions: 500 μg i.v. 1 h after 2×10^8 MRSA i.p.
Experimental: as §2

Molecule	MIC Strain 3425-3 (MRSA strain 3425-3) [µg/mL]	MIC Strain 3425-1 (S. aureus 3425-1) [µg/mL]	MIC (S. aureus SA113; S. aureus SA113, purified enzyme) [µg/mL]	MIC Strain SA113 (S. aureus SA113; biological duplicates) [µg/mL]	Tm ([1]; SYPRO Orange, PBS) [°C]	Tm ([1]; biological duplicates) [°C]	MIC Strain 6445 (S. aureus 6445) [µg/mL]	% Wild-Type Activity (S. aureus cells; 200 ng purified enzyme) [%]	% WT Lytic Rate (S. aureus cells; biological duplicates) [%]	reduced proliferative response relative to wild-type group (pooled splenocytes [2]) [%]	proliferation of pooled splenocytes (pooled splenocytes [3])	MIC activity relative to wild-type LST (MRSA strain USA400 [4]) [%]	survival rate (MRSA strain USA400 [5])	retained original MIC activity after heating (MRSA strain USA400 [4]; 50° C. for 1 hour prior to assay) [%]	fold lower antibody titers compared to wild-type LST [6]	survival (MRSA strain USA400 [7])
B1	0.05	0.11	0.1042	0.02	55.7	55.8	0.06	61	70 ± 30	50	at or below background levels	–	–	–	–	–
B2	–	–	–	–	–	–	–	–	–	–	–	12.5	1/3	–	–	–
B3	–	–	–	–	–	–	–	–	–	–	–	12.5	–	25	more than 200 fold	survived
